Laboratory results published in FireProtDB (doi:10.1021/bi00492a006).

Settings: Bacillus amyloliquefaciens; pH 6.3; 25 °C; Urea; Fluorescence; MES-NaOH 50 mM; reversible: yes; whole UniProt chain shown

B1: Ribonuclease wild type, P00648 (protein)
chain: MMKMEGIALKKRLSWISVCLLVLVSAAGMLFSTAAKTETSSHKAHTEAQVINTFDGVADYLQTYHKLPDNYITKSEAQALGWVASKGNLADVAPGKSIGGDIFSNREGKLPGKSGRTWREADINYTSGFRNSDRILYSSDWLIYKTTDHYQTFTKIR
- denaturant m value: 2.21 kcal/mol/M
- denaturant midpoint (higher = more stable): 4.53 M
- unfolding free energy: 10 kcal/mol
